Measurements published in article doi:10.1101/2020.08.09.242891 (bioRxiv, 2020).

Target: T1, FLAG-PKD1 (protein kinase D1) (UniProt Q15139 1-912)
T1 sequence (looked up): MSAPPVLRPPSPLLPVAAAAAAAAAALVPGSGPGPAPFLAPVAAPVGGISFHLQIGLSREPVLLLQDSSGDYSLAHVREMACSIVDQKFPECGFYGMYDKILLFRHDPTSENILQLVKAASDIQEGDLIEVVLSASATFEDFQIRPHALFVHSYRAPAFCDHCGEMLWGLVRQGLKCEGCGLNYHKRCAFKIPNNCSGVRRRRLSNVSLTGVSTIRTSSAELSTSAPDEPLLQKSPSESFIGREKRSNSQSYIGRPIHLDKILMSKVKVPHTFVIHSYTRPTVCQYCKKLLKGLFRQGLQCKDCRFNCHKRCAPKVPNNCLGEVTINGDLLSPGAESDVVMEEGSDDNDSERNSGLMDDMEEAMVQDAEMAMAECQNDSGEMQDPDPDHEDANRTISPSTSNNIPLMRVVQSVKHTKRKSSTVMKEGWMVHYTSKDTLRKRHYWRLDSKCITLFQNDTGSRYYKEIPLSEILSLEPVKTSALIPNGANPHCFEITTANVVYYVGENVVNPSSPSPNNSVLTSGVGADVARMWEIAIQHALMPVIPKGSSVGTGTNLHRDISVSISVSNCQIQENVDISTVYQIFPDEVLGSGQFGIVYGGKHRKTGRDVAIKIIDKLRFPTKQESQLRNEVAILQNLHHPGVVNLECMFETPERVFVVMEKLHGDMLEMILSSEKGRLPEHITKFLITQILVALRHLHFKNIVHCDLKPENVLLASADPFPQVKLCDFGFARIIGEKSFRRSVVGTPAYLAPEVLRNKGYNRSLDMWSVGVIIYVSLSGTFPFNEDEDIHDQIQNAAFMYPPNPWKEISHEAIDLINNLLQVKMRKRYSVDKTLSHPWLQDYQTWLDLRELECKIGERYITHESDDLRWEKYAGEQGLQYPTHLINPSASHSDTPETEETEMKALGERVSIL
Assay: pull-down

binding result: binds
B1: GST-CBX8 (natural protein, UniProt Q9HC52 1-389, looked up)
chain: MELSAVGERVFAAEALLKRRIRKGRMEYLVKWKGWSQKYSTWEPEENILDARLLAAFEEREREMELYGPKKRGPKPKTFLLKAQAKAKAKTYEFRSDSARGIRIPYPGRSPQDLASTSRAREGLRNMGLSPPASSTSTSSTCRAEAPRDRDRDRDRDRERDRERERERERERERERERERGTSRVDDKPSSPGDSSKKRGPKPRKELPDPSQRPLGEPSAGLGEYLKGRKLDDTPSGAGKFPAGHSVIQLARRQDSDLVQCGVTSPSSAEATGKLAVDTFPARVIKHRAAFLEAKGQGALDPNGTRVRHGSGPPSSGGGLYRDMGAQGGRPSLIARIPVARILGDPEEESWSPSLTNLEKVVVTDVTSNFLTVTIKESNTDQGFFKEKR
